Here are results for 40 sequences from the supplement of paper PMC7877785.

± gives the uncertainty stated by the source.

A short description of this series: self-splicing fitness, log relative to wild type (ln ratio); higher = more splicing; Tetrahymena group I intron in knt gene, E. coli kanamycin selection, DiMSum; sequences stand for … in CUCUCU…GGAGGGAAAAGUUAUCAGGCAUGCACCUGGUAGCUAGUCUUUAAACCAAUAGAUUGCAUCGGUUUAAAAGGCAAGACCGUCAAAUUGCGGGAAAGGGGUCAACAGCCGUUCAGUACCAAGUCUCAGGGGAAACUUUGAGAUGGCCUUGCAAAGGGUAUGGUAAUAAGCUGACGGACAUGGUCCUAACCACGCAGCCAAGUCCUAAGUCAACAGAUCUUCUGUUGAUAUGGAUGCAGUUCACAGACUAAAUGUCGGUCGGGGAAGAUGUAUUCUUCUCAUAAGAUAUAGUCGGACCUCUCCUUAAUGGGAGCUAGCGGAUGAAGUGAUGCAACACUGGAGCCGCUGGGAACUAAUUUGUAUGCGAAAGUAUAUUGAUUAGUUUUGGAGUACUCGUGGUCG
The method, boiled down: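 A randomised library covering all eight P1ex-region intron nucleotides was built with the intron in the knt kanamycin-resistance gene on pET-22b(+) and held in E. coli BL21(DE3). Cells were grown overnight at 37°C or 30°C on LB agar, with or without 25 μg/mL kanamycin, plus 100 μg/mL carbenicillin, 50 μM IPTG and 0.2% rhamnose, and pooled colonies were amplicon-sequenced on an Illumina HiSeq 2500. DiMSum fitness is the error-weighted combination of wild-type-normalised replicate fold changes, kanamycin versus none.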

As for CGAAAGCAAUAUUACGGACG, the “self-splicing fitness (ln)” value is -2.73 ± 0.21 (30 °C) and -2.25 ± 0.22 (37 °C).

Regarding CGAAAGCAAUAUUACGGCAA, the “self-splicing fitness (ln)” value runs as follows: (30 °C) -1.82 ± 0.11; (37 °C) -1.03 ± 0.1.

In the case of CGAAAGCAAUAUUACGGGAA, the “self-splicing fitness (ln)” value runs as follows: (30 °C) -2.17 ± 0.4; (37 °C) -2.08 ± 0.26.

For the sequence CGAAAGCAAUAUUACGGUAA, the “self-splicing fitness (ln)” value is -2.13 ± 0.16 (30 °C) and -1.56 ± 0.15 (37 °C).

On to CGAAAGCAAUAUUACGGUCA, for which the “self-splicing fitness (ln)” value is -0.303 ± 0.12 (30 °C) and -0.586 ± 0.14 (37 °C).

In the case of CGAAAGCAAUAUUACGUAGA, the “self-splicing fitness (ln)” value runs as follows: (30 °C) -2.43 ± 0.092; (37 °C) -1.49 ± 0.12.

Regarding CGAAAGCAAUAUUACGUAUU, the “self-splicing fitness (ln)” value by setting is: (30 °C) -3.3 ± 0.15; (37 °C) -1.51 ± 0.13.

Regarding CGAAAGCAAUAUUACGUCCA, the “self-splicing fitness (ln)” value (30 °C) is -1.26 ± 0.12 and the “self-splicing fitness (ln)” value (37 °C) is -0.276 ± 0.13.

Turning to CGAAAGCAAUAUUACGUCGU, the “self-splicing fitness (ln)” value reads like this: (30 °C) -3.33 ± 0.14; (37 °C) -2.36 ± 0.18.

CGAAAGCAAUAUUACGUCUC: the “self-splicing fitness (ln)” value is -2.71 ± 0.42 (30 °C) and -1.15 ± 0.26 (37 °C).

CGAAAGCAAUAUUACGUGCU: the “self-splicing fitness (ln)” value (30 °C) is -3.73 ± 0.18 and the “self-splicing fitness (ln)” value (37 °C) was -2.41 ± 0.18.

CGAAAGCAAUAUUACGUGUG: the “self-splicing fitness (ln)” value (30 °C) was -0.273 ± 0.054 and the “self-splicing fitness (ln)” value (37 °C) is 0.27 ± 0.066.

In the case of CGAAAGCAAUAUUACGUUCA, the “self-splicing fitness (ln)” value is -0.312 ± 0.074 (30 °C) and 0.0231 ± 0.091 (37 °C).

Regarding CGAAAGCAAUAUUACGUUGC, the “self-splicing fitness (ln)” value is -4.09 ± 0.17 (30 °C) and -3.23 ± 0.2 (37 °C).

As to CGACAGCAAUAUUACGACUU, the “self-splicing fitness (ln)” value was -1.1 ± 0.059 (30 °C) and -0.881 ± 0.066 (37 °C).

Regarding CGACAGCAAUAUUACGCAUA, the “self-splicing fitness (ln)” value (30 °C) is -3.03 ± 0.18 and the “self-splicing fitness (ln)” value (37 °C) is -2.33 ± 0.18.

Turning to CGACAGCAAUAUUACGCCUG, the “self-splicing fitness (ln)” value (30 °C) was -0.901 ± 0.066 and the “self-splicing fitness (ln)” value (37 °C) is -0.0701 ± 0.069.

Take CGACAGCAAUAUUACGCGAU: the “self-splicing fitness (ln)” value was -2.8 ± 0.22 (30 °C) and -2.46 ± 0.28 (37 °C).

Consider CGACAGCAAUAUUACGGACA, for which the “self-splicing fitness (ln)” value by setting is: (30 °C) -1.24 ± 0.11; (37 °C) -0.761 ± 0.12.

For the sequence CGACAGCAAUAUUACGGCCG, the “self-splicing fitness (ln)” value is, setting by setting: (30 °C) -2.22 ± 0.12; (37 °C) -1.21 ± 0.12.

As for CGACAGCAAUAUUACGGGAG, the “self-splicing fitness (ln)” value runs as follows: (30 °C) -3.21 ± 0.15; (37 °C) -1.97 ± 0.13.

As for CGACAGCAAUAUUACGGUGU, the “self-splicing fitness (ln)” value by setting is: (30 °C) -3.48 ± 0.14; (37 °C) -2.77 ± 0.16.

With CGACAGCAAUAUUACGUAAC, the “self-splicing fitness (ln)” value runs as follows: (30 °C) -4.37 ± 0.23; (37 °C) -2.03 ± 0.31.

CGACAGCAAUAUUACGUACU: the “self-splicing fitness (ln)” value was -1.26 ± 0.082 (30 °C) and -0.578 ± 0.089 (37 °C).

Turning to CGACAGCAAUAUUACGUCCU, the “self-splicing fitness (ln)” value (30 °C) is -0.518 ± 0.072 and the “self-splicing fitness (ln)” value (37 °C) is -0.311 ± 0.078.

For CGACAGCAAUAUUACGUGCG, the “self-splicing fitness (ln)” value runs as follows: (30 °C) -4.12 ± 0.17; (37 °C) -2.5 ± 0.19.

With CGACAGCAAUAUUACGUUUG, the “self-splicing fitness (ln)” value was -3.09 ± 0.15 (30 °C) and -1.19 ± 0.11 (37 °C).

Consider CGAGAGCAAUAUUACGAAUU, for which, for the setting “30 °C”, the “self-splicing fitness (ln)” value was -2.77 ± 0.29.

For CGAGAGCAAUAUUACGAUUC, the “self-splicing fitness (ln)” value runs as follows: (30 °C) -2.96 ± 0.38; (37 °C) -1.19 ± 0.29.

Regarding CGAGAGCAAUAUUACGCACA, the “self-splicing fitness (ln)” value (30 °C) was -2.47 ± 0.27.

As to CGAGAGCAAUAUUACGCACU, the “self-splicing fitness (ln)” value was -2.06 ± 0.2 (30 °C) and -1.89 ± 0.23 (37 °C).

For CGAGAGCAAUAUUACGCCAG, the “self-splicing fitness (ln)” value (37 °C) was -1.51 ± 0.4.

For the sequence CGAGAGCAAUAUUACGCGCA, the “self-splicing fitness (ln)” value (30 °C) is -3.56 ± 0.48 and the “self-splicing fitness (ln)” value (37 °C) was -1.38 ± 0.26.

Take CGAGAGCAAUAUUACGCGCG: the “self-splicing fitness (ln)” value (30 °C) is -1.64 ± 0.25.

Turning to CGAGAGCAAUAUUACGGUCA, the “self-splicing fitness (ln)” value is -3.17 ± 0.27 (30 °C) and -2.29 ± 0.3 (37 °C).

Regarding CGAGAGCAAUAUUACGUAAC, the “self-splicing fitness (ln)” value (37 °C) is -1.98 ± 0.34.

As for CGAGAGCAAUAUUACGUAGG, the “self-splicing fitness (ln)” value is -3.03 ± 0.15 (30 °C) and -1.39 ± 0.15 (37 °C).

As to CGAGAGCAAUAUUACGUCGU, under “37 °C”, the “self-splicing fitness (ln)” value was -3.09 ± 0.37.

Consider CGAGAGCAAUAUUACGUGUA, for which the “self-splicing fitness (ln)” value was -3.34 ± 0.22 (30 °C) and -2.9 ± 0.23 (37 °C).

For CGAGAGCAAUAUUACGUUUG, the “self-splicing fitness (ln)” value is -4.63 ± 0.28 (30 °C) and -2.12 ± 0.22 (37 °C).
